Several values for one entry are separate records, joined by “and”; a condition that tells them apart may be missing. Equal values may be shown once.
Biological target: Biotinylated C3b (human) (UniProt P01024)
Assay: BLI; biotinylated C3b on streptavidin sensors; FPht variants at 100 to 1.56 μg/mL, 60 s steps; 30°C; 20 mM MES pH 6.0, 100 mM NaCl, 0.05% Tween, 1 mg/mL BSA; steady state 1:1 fit (for WT also kinetic analysis)

Biotinylated C3b (human), sequence (P01024 23-667, chain 1 of 2): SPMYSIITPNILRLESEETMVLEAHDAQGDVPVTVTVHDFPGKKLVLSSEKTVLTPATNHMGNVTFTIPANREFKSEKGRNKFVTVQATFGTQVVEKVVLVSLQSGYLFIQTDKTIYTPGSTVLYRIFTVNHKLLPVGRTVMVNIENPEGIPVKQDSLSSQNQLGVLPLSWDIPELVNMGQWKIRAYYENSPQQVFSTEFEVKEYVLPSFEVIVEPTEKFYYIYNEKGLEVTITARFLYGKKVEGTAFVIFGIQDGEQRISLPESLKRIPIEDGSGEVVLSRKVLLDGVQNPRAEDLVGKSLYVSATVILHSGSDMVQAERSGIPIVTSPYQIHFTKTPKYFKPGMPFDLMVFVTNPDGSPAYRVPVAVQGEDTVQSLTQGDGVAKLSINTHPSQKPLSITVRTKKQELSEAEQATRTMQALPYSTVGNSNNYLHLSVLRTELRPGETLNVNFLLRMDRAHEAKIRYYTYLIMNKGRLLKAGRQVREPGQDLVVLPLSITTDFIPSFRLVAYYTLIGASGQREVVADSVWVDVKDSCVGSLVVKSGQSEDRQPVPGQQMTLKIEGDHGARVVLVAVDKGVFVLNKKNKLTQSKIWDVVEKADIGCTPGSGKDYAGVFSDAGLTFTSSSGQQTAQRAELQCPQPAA
Biotinylated C3b (human), sequence (P01024 749-1663, chain 2 of 2): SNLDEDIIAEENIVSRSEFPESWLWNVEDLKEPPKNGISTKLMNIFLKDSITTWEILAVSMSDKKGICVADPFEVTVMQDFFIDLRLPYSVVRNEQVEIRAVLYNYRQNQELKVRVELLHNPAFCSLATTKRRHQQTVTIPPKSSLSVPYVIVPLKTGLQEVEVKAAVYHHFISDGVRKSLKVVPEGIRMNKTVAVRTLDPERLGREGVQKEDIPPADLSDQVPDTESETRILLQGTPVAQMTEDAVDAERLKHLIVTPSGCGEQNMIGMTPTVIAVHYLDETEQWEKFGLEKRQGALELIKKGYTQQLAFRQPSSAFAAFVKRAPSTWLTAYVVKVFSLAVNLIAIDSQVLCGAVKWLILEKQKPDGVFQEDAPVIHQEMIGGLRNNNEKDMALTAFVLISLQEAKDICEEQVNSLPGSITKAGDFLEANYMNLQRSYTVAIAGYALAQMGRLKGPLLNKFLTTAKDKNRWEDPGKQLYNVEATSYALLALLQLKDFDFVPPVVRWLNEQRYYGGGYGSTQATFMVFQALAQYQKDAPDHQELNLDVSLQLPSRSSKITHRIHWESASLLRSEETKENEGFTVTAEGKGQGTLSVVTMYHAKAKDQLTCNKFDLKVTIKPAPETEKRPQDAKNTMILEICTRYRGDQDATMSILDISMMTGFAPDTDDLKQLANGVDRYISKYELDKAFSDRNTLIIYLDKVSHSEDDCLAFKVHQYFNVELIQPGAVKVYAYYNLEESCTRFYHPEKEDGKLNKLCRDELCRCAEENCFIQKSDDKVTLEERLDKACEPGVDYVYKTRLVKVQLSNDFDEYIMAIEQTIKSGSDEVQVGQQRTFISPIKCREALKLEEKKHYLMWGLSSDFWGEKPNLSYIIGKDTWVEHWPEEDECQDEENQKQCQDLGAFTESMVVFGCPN

“FPht, monomeric FP head-tail protein from co-expression of FPh and FPt (complex)” was tested, and the Kd was 320 nM and 350 nM.

Reference: article PMC6713926
